One assay has as its target T1, M1-Ub4 (UniProt P0CG48 1-76; P0CG48 1-76; P0CG48 1-76; P0CG48 1-76).
T1 construct: ubiquitin (Ub), first unit; ubiquitin (Ub), second unit; ubiquitin (Ub), third unit; ubiquitin (Ub), fourth unit
The assay is described as follows: SPR; Biacore T200, 25 °C; wild-type or mutant His6-yNpl4^113–580, yUfd1–His6-yNpl4^113–580 or His6-hNpl4 immobilized on a CM5 chip by amine coupling; Ub2 or Ub4 in two-fold dilution series injected 60 s at 10 μL per min in 10 mM HEPES-NaOH pH 7.5, 150 mM NaCl, 0.05% Tween-20, 0.5 g/L BSA; equilibrium Kd. The following applies: both partners purified. Background: Surface plasmon resonance follows binding to a sensor surface in real time, without labels.

A further assay addresses T2, His6-yNpl4^113–580 (Saccharomyces cerevisiae, UniProt P33755 113-580).
T2 construct: codon-optimized synthetic cDNA; also called WT; WT #1; source: E. coli Rosetta (DE3), purified (Ni-NTA, Resource Q); also in lysate, mixed with cells expressing GST-yUfd1 for co-purification; not shown: His6, N-terminal, kept
T2 sequence (looked up): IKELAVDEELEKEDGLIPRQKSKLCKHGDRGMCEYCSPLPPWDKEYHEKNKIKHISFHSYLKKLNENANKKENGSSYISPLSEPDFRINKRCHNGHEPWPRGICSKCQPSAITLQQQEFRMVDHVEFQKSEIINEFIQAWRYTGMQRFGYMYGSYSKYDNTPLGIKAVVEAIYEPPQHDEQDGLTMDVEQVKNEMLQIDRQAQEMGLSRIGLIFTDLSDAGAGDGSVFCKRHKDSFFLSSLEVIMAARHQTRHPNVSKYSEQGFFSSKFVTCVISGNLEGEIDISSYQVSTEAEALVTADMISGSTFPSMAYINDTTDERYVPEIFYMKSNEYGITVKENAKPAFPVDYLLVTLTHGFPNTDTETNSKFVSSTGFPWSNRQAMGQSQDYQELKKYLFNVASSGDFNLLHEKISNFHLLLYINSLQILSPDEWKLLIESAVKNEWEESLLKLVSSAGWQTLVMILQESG
The assay is described as follows: fluorescence polarisation; fluorescence anisotropy; 1 nM FlAsH-labeled His6-SUMO-yUfd1 peptide, His6-yNpl4^113–580 in two-fold dilution series; 25 °C; 50 mM Tris-HCl pH 8.0, 100 mM NaCl, 5 mM β-mercaptoethanol, 0.1 g/L BSA. The following applies: both partners purified. A general note: In fluorescence polarisation assays a small probe gives low polarisation when free and higher when bound to something large.

No end group written: not given here.

T1 sequence (P0CG48 1-304, one chain of several): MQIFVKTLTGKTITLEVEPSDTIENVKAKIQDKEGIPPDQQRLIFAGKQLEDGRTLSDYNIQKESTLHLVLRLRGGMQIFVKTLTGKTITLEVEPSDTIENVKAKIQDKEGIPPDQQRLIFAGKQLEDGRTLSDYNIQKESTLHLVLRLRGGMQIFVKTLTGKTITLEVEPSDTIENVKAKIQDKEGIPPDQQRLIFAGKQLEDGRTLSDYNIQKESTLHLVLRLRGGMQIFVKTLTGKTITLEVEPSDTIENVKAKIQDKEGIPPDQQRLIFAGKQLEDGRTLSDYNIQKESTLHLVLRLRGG

B1: His6-yNpl4^113–580 T571A (domain or fragment, Saccharomyces cerevisiae, UniProt P33755 113-580, looked up)
chain: IKELAVDEELEKEDGLIPRQKSKLCKHGDRGMCEYCSPLPPWDKEYHEKNKIKHISFHSYLKKLNENANKKENGSSYISPLSEPDFRINKRCHNGHEPWPRGICSKCQPSAITLQQQEFRMVDHVEFQKSEIINEFIQAWRYTGMQRFGYMYGSYSKYDNTPLGIKAVVEAIYEPPQHDEQDGLTMDVEQVKNEMLQIDRQAQEMGLSRIGLIFTDLSDAGAGDGSVFCKRHKDSFFLSSLEVIMAARHQTRHPNVSKYSEQGFFSSKFVTCVISGNLEGEIDISSYQVSTEAEALVTADMISGSTFPSMAYINDTTDERYVPEIFYMKSNEYGITVKENAKPAFPVDYLLVTLTHGFPNTDTETNSKFVSSTGFPWSNRQAMGQSQDYQELKKYLFNVASSGDFNLLHEKISNFHLLLYINSLQILSPDEWKLLIESAVKNEWEESLLKLVSSAGWQALVMILQESG
notes: source: E. coli Rosetta (DE3), purified (Ni-NTA, Resource Q); not shown: His6, N-terminal, kept
The molecule B1 had a Kd with M1-Ub4 of 923 µM.

B2: His6-yNpl4^113–580 M574A (domain or fragment, Saccharomyces cerevisiae, UniProt P33755 113-580, looked up)
chain: IKELAVDEELEKEDGLIPRQKSKLCKHGDRGMCEYCSPLPPWDKEYHEKNKIKHISFHSYLKKLNENANKKENGSSYISPLSEPDFRINKRCHNGHEPWPRGICSKCQPSAITLQQQEFRMVDHVEFQKSEIINEFIQAWRYTGMQRFGYMYGSYSKYDNTPLGIKAVVEAIYEPPQHDEQDGLTMDVEQVKNEMLQIDRQAQEMGLSRIGLIFTDLSDAGAGDGSVFCKRHKDSFFLSSLEVIMAARHQTRHPNVSKYSEQGFFSSKFVTCVISGNLEGEIDISSYQVSTEAEALVTADMISGSTFPSMAYINDTTDERYVPEIFYMKSNEYGITVKENAKPAFPVDYLLVTLTHGFPNTDTETNSKFVSSTGFPWSNRQAMGQSQDYQELKKYLFNVASSGDFNLLHEKISNFHLLLYINSLQILSPDEWKLLIESAVKNEWEESLLKLVSSAGWQTLVAILQESG
notes: as for B1
For B2, binding with M1-Ub4 was put at a Kd of 291 µM.

B3: His6-yNpl4^113–580 M574Q (domain or fragment, Saccharomyces cerevisiae, UniProt P33755 113-580, looked up)
chain: IKELAVDEELEKEDGLIPRQKSKLCKHGDRGMCEYCSPLPPWDKEYHEKNKIKHISFHSYLKKLNENANKKENGSSYISPLSEPDFRINKRCHNGHEPWPRGICSKCQPSAITLQQQEFRMVDHVEFQKSEIINEFIQAWRYTGMQRFGYMYGSYSKYDNTPLGIKAVVEAIYEPPQHDEQDGLTMDVEQVKNEMLQIDRQAQEMGLSRIGLIFTDLSDAGAGDGSVFCKRHKDSFFLSSLEVIMAARHQTRHPNVSKYSEQGFFSSKFVTCVISGNLEGEIDISSYQVSTEAEALVTADMISGSTFPSMAYINDTTDERYVPEIFYMKSNEYGITVKENAKPAFPVDYLLVTLTHGFPNTDTETNSKFVSSTGFPWSNRQAMGQSQDYQELKKYLFNVASSGDFNLLHEKISNFHLLLYINSLQILSPDEWKLLIESAVKNEWEESLLKLVSSAGWQTLVQILQESG
notes: as for B1
On to B3, for which the dissociation constant Kd with M1-Ub4 was found to be 634 µM.

B4: His6-yNpl4^113–580 A494F (domain or fragment, Saccharomyces cerevisiae, UniProt P33755 113-580, looked up)
chain: IKELAVDEELEKEDGLIPRQKSKLCKHGDRGMCEYCSPLPPWDKEYHEKNKIKHISFHSYLKKLNENANKKENGSSYISPLSEPDFRINKRCHNGHEPWPRGICSKCQPSAITLQQQEFRMVDHVEFQKSEIINEFIQAWRYTGMQRFGYMYGSYSKYDNTPLGIKAVVEAIYEPPQHDEQDGLTMDVEQVKNEMLQIDRQAQEMGLSRIGLIFTDLSDAGAGDGSVFCKRHKDSFFLSSLEVIMAARHQTRHPNVSKYSEQGFFSSKFVTCVISGNLEGEIDISSYQVSTEAEALVTADMISGSTFPSMAYINDTTDERYVPEIFYMKSNEYGITVKENAKPAFPVDYLLVTLTHGFPNTDTETNSKFVSSTGFPWSNRQFMGQSQDYQELKKYLFNVASSGDFNLLHEKISNFHLLLYINSLQILSPDEWKLLIESAVKNEWEESLLKLVSSAGWQTLVMILQESG
notes: as for B1
B4 returned a Kd with M1-Ub4 of 84 µM.

B5: His6-yNpl4^113–580 I575A (domain or fragment, Saccharomyces cerevisiae, UniProt P33755 113-580, looked up)
chain: IKELAVDEELEKEDGLIPRQKSKLCKHGDRGMCEYCSPLPPWDKEYHEKNKIKHISFHSYLKKLNENANKKENGSSYISPLSEPDFRINKRCHNGHEPWPRGICSKCQPSAITLQQQEFRMVDHVEFQKSEIINEFIQAWRYTGMQRFGYMYGSYSKYDNTPLGIKAVVEAIYEPPQHDEQDGLTMDVEQVKNEMLQIDRQAQEMGLSRIGLIFTDLSDAGAGDGSVFCKRHKDSFFLSSLEVIMAARHQTRHPNVSKYSEQGFFSSKFVTCVISGNLEGEIDISSYQVSTEAEALVTADMISGSTFPSMAYINDTTDERYVPEIFYMKSNEYGITVKENAKPAFPVDYLLVTLTHGFPNTDTETNSKFVSSTGFPWSNRQAMGQSQDYQELKKYLFNVASSGDFNLLHEKISNFHLLLYINSLQILSPDEWKLLIESAVKNEWEESLLKLVSSAGWQTLVMALQESG
notes: as for B1
B5 yielded a dissociation constant Kd with M1-Ub4 of 837 µM.

B6: His6-yNpl4^113–580 S498L (domain or fragment, Saccharomyces cerevisiae, UniProt P33755 113-580, looked up)
chain: IKELAVDEELEKEDGLIPRQKSKLCKHGDRGMCEYCSPLPPWDKEYHEKNKIKHISFHSYLKKLNENANKKENGSSYISPLSEPDFRINKRCHNGHEPWPRGICSKCQPSAITLQQQEFRMVDHVEFQKSEIINEFIQAWRYTGMQRFGYMYGSYSKYDNTPLGIKAVVEAIYEPPQHDEQDGLTMDVEQVKNEMLQIDRQAQEMGLSRIGLIFTDLSDAGAGDGSVFCKRHKDSFFLSSLEVIMAARHQTRHPNVSKYSEQGFFSSKFVTCVISGNLEGEIDISSYQVSTEAEALVTADMISGSTFPSMAYINDTTDERYVPEIFYMKSNEYGITVKENAKPAFPVDYLLVTLTHGFPNTDTETNSKFVSSTGFPWSNRQAMGQLQDYQELKKYLFNVASSGDFNLLHEKISNFHLLLYINSLQILSPDEWKLLIESAVKNEWEESLLKLVSSAGWQTLVMILQESG
notes: as for B1
B6 came in with a dissociation constant (Kd) with M1-Ub4 of 101 µM.

B7: FlAsH-labeled His6-SUMO-yUfd1^288–305-GWCCPGCC E296A (peptide, UniProt P53044 288-305, looked up)
chain: {His6-SUMO}-EPAKLDLPAGQLFFGFPMGWCCPGCC
modifications: cysteine pairing not given here; also: FlAsH label bound to CCPGCC motif
notes: Ufd1 of Saccharomyces cerevisiae (yUfd1), residues 288-305 (NBM); also called yUfd1 E296A; source: E. coli Rosetta (DE3) (pCold-SUMO), purified (Ni-NTA, Resource Q), labeled with FlAsH-EDT2; not shown: His6, N-terminal, kept; SUMO, N-terminal, kept
Take B7: the dissociation constant Kd with His6-yNpl4^113–580 was 0.437 µM.

B8: FlAsH-labeled His6-SUMO-yUfd1^288–305-GWCCPGCC L292A (peptide, UniProt P53044 288-305, looked up)
chain: {His6-SUMO}-EPAKADLPEGQLFFGFPMGWCCPGCC
modifications: cysteine pairing not given here; also: FlAsH label bound to CCPGCC motif
notes: Ufd1 of Saccharomyces cerevisiae (yUfd1), residues 288-305 (NBM); also called yUfd1 L292A; source: E. coli Rosetta (DE3) (pCold-SUMO), purified (Ni-NTA, Resource Q), labeled with FlAsH-EDT2; not shown: His6, N-terminal, kept; SUMO, N-terminal, kept
On to B8, for which, in the assay with His6-yNpl4^113–580, the Kd was determined as 5.29 µM.

In general, Kd refers to the constant that tells how readily two partners part at equilibrium. Higher therefore signals a looser complex.

The record behind these values is publication PMC6910952 (Nature Communications, 2019).
